Patent US11389568B2, “Tyrosine peptide cross-linked biocompatible hydrogel and method of production” (SEOUL NATIONAL UNIVERSITY R&DB FOUNDATION, priority 2016, dated 2022)
Ends that are not written are not given here.

How the values were obtained:
[1] = Storage modulus (G′) by rheometer; assay type: physicochemical; details: for storage modulus (G′), comparison in words: at 30 rad/s
Method: The crosslinking time and storage modulus (G′) were analyzed using a rheometer. Hydrogel samples with 20 mm diameter and 5 mm thickness were prepared. The crosslinking time was measured over time at an oscillation frequency of 1 Hz and a stress sweep of 10 Pa. The storage modulus was measured at an oscillation frequency of 1 Hz and a stress sweep of 1-100 Pa. All measurements were performed in triplicate and averaged.
Specifically, the storage modulus G′ was obtained by oscillatory shear measurements at room temperature using a constant stress rheometer (Discovery Hybrid Rheometer-3 from TA Instruments, USA). For the measurements, hydrogel samples with a defined shape of 20 mm diameter and 5 mm thickness were prepared. The cured hydrogel was placed on a lower rheometer stage, and an upper rheometer fixture (diameter 20 mm) was lowered until it made contact with the top surface of the sample. The value of G′ was then measured at oscillation frequency 1 Hz in a stress sweep test of 1-100 Pa. This stress sweep was performed in order to determine the limit of the linear viscoelastic range. All the G′ measurements were obtained in triplicate. Error bars in figures represent the standard deviation from the mean value (see FIGS. 7 and 9).
Specifically, it is well known that the mechanical properties of hydrogels are closely related to the crosslinking density. The storage modulus (G′) measured by rheological analysis is a reliable value representing the rigidity of the subjected hydrogel. The G′ of HA-Ty hydrogel without any peptide addition was 156.6 Pa at a strain of 1% at 30 rad/s (see FIG. 10).

[2] = Swelling test of lyophilized hydrogels in distilled water; assay type: physicochemical; details: distilled water at 25° C.
Method: Swelling and degradation tests on the hydrogels were conducted by the following procedures. First, HA hydrogels were photocrosslinked with different peptide sequences (YYACAYY (SEQ ID: 4), di-YYACAYY (SEQ ID: 5), YYAYY (SEQ ID: 7), YYCYY (SEQ ID; 8), and YYAHAYY (SEQ ID: 6), 0.1 mM each). Swelling experiments were performed by measuring the increase in weight of the lyophilized hydrogels. Lyophilized hydrogels were placed in 1 mL distilled water at 25° C. The swelling ratio (S %) of hydrogels in distilled water was calculated using S %=[(Wt−W0]/W0)]100, where Wt is the weight of the swollen hydrogel at time t, and W0 is the weight of the dry gel at time 0. Degradation tests were performed by measuring the weights of hydrogels in PBS containing 0.01 mg/mL hyaluronidase at different time points.

[3] = Solubility of the peptide in hydrogel preparation; assay type: physicochemical
fibroblasts = assay: Cytotoxicity test by MTT assay; assay type: cell-based; details: riboflavin 0.1 μM-10 mM, YC7 0.1 μM-1 mM, 24 hr at 37° C.
Method: To investigate the biocompatibility of the hydrogels, fibroblasts were used in a cytotoxicity test. Fibroblasts were seeded with the density of 4×10^4/well in 24 well plates. […] Finally, cell toxicity was evaluated by MTT assay. Fibroblasts were grown with the density of 1×10^5/well in 12 well dishes to test their proliferation in different hydrogels. The grown cells area was scratched using pipette tips to create a wound-like environment and the hydrogels were added to 12 transwells, which were then placed in the dishes where cells had been grown. The proliferation effect of cells was evaluated depending on the degree of cell filling in the scratches.

Substance	storage modulus (G′), comparison in words [1]	further results
YYAYY [YA5, tyrosine-based peptide; the code also labels the HA-Ty hydrogel photocrosslinked with it]	higher than that of YH7	
YYAHAYY [YH7, tyrosine-based peptide; the code also labels the HA-Ty hydrogel photocrosslinked with it]	almost the same G′ as HA-Ty	
di-YYACAYY (YYACAYYYYACAYY; cysteine pairing not given here; also: dimer of YYACAYY) [DYC7, tyrosine-based peptide; the code also labels the HA-Ty hydrogel photocrosslinked with it]	highest G′	storage modulus (G′) ([1]; strain of 1% at 30 rad/s, peptide 0.1 mM): 297.6 Pa; swelling ratio, comparison in words [2]: slightly higher than that of YC7; solubility [3]: partial insolubility
YYCYY [YC5, tyrosine-based peptide; the code also labels the HA-Ty hydrogel photocrosslinked with it]	higher than that of YH7	
YYACAYY [YC7, YYACAYY]		cytotoxicity (fibroblasts): no cytotoxicity
